Measurements reported in FireProtDB (doi:10.1073/pnas.0804396105).
Several values for one entry are separate records, joined by “and”; a condition that tells them apart may be missing. Equal entries are not always repeated.

B1: Adenosine receptor A2a, P29274 (parent)
chain: MPIMGSSVYITVELAIAVLAILGNVLVCWAVWLNSNLQNVTNYFVVSLAAADIAVGVLAIPFAITISTGFCAACHGCLFIACFVLVLTQSSIFSLLAIAIDRYIAIRIPLRYNGLVTGTRAKGIIAICWVLSFAIGLTPMLGWNNCGQPKEGKNHSQGCGEGQVACLFEDVVPMNYMVYFNFFACVLVPLLLMLGVYLRIFLAARRQLKQMESQPLPGERARSTLQKEVHAAKSLAIIVGLFALCWLPLHIINCFTFFCPDCSHAPLWLMYLAIVLSHTNSVVNPFIYAYRIREFRQTFRKIIRSHVLRQQEPFKAAGTSARVLAAHGSDGEQVSLRLNGHPPGVWANGSAPHPERRPNGYALGLVSGGSAQESQGNTGLPDVELLSHELKGVCPEPPGLDDPLAQDGAGVS

Variants of: B1
Settings: Homo sapiens; pH 7.4; Thermal; Activity; Tris 50 mM; NaCl 0.4 M; structure 4UHR; whole UniProt chain shown

Variant: K122A L235A
- Tm: 37 °C
- change of melting temperature, mutant - wild type (higher = more stable): 6 °C

Variant: L167A A184L R199A L241A L272A
- Tm: 29 °C
- change of melting temperature, mutant - wild type (higher = more stable): 9 °C

Variant: G114A G118A
- Tm: 31 °C
- change of melting temperature, mutant - wild type (higher = more stable): 11 °C

Variant: A184L A203L
- Tm: 30 °C
- change of melting temperature, mutant - wild type (higher = more stable): 10 °C

Variant: T279A N284A
- Tm: 29 °C
- change of melting temperature, mutant - wild type (higher = more stable): 9 °C

Variant: A54L T88A A204L V239A
- change of melting temperature, mutant - wild type (higher = more stable): 10 °C and 15 °C

Variant: A231L L235A V239A
- Tm: 38 °C
- change of melting temperature, mutant - wild type (higher = more stable): 7 °C

Variant: A54L V239A
- Tm: 40 °C and 42 °C
- change of melting temperature, mutant - wild type (higher = more stable): 9 °C and 10 °C
